From patent US20240018254A1

Biological target: FcγRIIIa-bio (UniProt P08637)
Assay: BLI (Fortebio), FcγRIIIa-bio on SA sensor, antibody 31.3-500 nM, 1:1 fit

Chain of UniProt P08637 (P08637 17-208 limits assumed): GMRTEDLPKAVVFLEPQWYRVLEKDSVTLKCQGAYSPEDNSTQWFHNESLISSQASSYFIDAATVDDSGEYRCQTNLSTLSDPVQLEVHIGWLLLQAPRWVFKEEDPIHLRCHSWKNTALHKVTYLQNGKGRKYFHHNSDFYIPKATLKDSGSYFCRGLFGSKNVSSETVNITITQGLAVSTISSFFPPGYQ

- Kd: 141 nM
- koff: 0.0342 s⁻¹
- kon: 243000 M⁻¹ s⁻¹
Substance: MEDI9447 (Oleclumab) (antibody)
